Measurements: FireProtDB (doi:10.3390/ijms21030752)

B1: Guanylyl cyclase-activating protein 1, P43080 (parent)
chain: MGNVMEGKSVEELSSTECHQWYKKFMTECPSGQLTLYEFRQFFGLKNLSPSASQYVEQMFETFDFNKDGYIDFMEYVAALSLVLKGKVEQKLRWYFKLYDVDGNGCIDRDELLTIIQAIRAINPCSDTTMTAEEFTDTVFSKIDVNGDGELSLEEFIEGVQKDQMLLDTLTRSLDLTRIVRRLQNGEQDEEGADEAAEAAG

Variants of: B1
Settings: Homo sapiens, pH 7.5, Thermal, CD, Tris-HCl 20mM, whole UniProt chain shown

Variant	Tm (KCL 150 mM)	change of melting temperature, mutant - wild type (higher = more stable) (KCL 150 mM)	Tm (KCL and Mg2+ 150 mM and 1 mM)	change of melting temperature, mutant - wild type (higher = more stable) (KCL and Mg2+ 150 mM and 1 mM)
MGNVMEGKSVEELSSTECHQWYKKFMTECPSGQLTLYEFRQFFGLKNLSPSASQYVEQMFETFDFNKDGYIDFMEYVAALSLVLKRKVEQKLRLYFKLYDVDGNGCIDRDELLTIIQAIRAINPCSDTTMTAEEFTDTVFSKIDVNGDGELSLEEFIEGVQKDQMLLDTLTRSLDLTRIVRRLQNGEQDEEGADEAAEAAG [G86R W94L]	42 °C	-7.8 °C	47 °C	-3.3 °C
MGNVMEGKSVEELSSTECHQWYKKFMTECPSGQLTLYEFRQFFGLKNLSPSASQYVEQMFETFDFNKDGYIDFMEYVAALSLVLKRKVEQKLRFYFKLYDVDGNGCIDRDELLTIIQAIRAINPCSDTTMTAEEFTDTVFSKIDVNGDGELSLEEFIEGVQKDQMLLDTLTRSLDLTRIVRRLQNGEQDEEGADEAAEAAG [G86R W94F]	40.6 °C	-9.2 °C	47.8 °C	-2.5 °C
MGNVMEGKSVEELSSTECHQWYKKFMTECPSGQLTLYEFRQFFGLKNLSPSASQYVEQMFETFDFNKDGYIDFMEYVAALSLVLKRKVEQKLRWYFKLYDVDGNGCIDRDELLTIIQAIRAINPCSDTTMTAEEFTDTVFSKIDVNGDGELSLEEFIEGVQKDQMLLDTLTRSLDLTRIVRRLQNGEQDEEGADEAAEAAG [G86R]	41.6 °C	-8.2 °C	46.8 °C	-3.5 °C
